Laboratory results reported in US20220089784A1 (University of California, published 2022).

T1: BoNT/F1 (proteolytic BoNT/F) (Clostridium botulinum, UniProt A7GBG3 1-1278)
T1 sequence: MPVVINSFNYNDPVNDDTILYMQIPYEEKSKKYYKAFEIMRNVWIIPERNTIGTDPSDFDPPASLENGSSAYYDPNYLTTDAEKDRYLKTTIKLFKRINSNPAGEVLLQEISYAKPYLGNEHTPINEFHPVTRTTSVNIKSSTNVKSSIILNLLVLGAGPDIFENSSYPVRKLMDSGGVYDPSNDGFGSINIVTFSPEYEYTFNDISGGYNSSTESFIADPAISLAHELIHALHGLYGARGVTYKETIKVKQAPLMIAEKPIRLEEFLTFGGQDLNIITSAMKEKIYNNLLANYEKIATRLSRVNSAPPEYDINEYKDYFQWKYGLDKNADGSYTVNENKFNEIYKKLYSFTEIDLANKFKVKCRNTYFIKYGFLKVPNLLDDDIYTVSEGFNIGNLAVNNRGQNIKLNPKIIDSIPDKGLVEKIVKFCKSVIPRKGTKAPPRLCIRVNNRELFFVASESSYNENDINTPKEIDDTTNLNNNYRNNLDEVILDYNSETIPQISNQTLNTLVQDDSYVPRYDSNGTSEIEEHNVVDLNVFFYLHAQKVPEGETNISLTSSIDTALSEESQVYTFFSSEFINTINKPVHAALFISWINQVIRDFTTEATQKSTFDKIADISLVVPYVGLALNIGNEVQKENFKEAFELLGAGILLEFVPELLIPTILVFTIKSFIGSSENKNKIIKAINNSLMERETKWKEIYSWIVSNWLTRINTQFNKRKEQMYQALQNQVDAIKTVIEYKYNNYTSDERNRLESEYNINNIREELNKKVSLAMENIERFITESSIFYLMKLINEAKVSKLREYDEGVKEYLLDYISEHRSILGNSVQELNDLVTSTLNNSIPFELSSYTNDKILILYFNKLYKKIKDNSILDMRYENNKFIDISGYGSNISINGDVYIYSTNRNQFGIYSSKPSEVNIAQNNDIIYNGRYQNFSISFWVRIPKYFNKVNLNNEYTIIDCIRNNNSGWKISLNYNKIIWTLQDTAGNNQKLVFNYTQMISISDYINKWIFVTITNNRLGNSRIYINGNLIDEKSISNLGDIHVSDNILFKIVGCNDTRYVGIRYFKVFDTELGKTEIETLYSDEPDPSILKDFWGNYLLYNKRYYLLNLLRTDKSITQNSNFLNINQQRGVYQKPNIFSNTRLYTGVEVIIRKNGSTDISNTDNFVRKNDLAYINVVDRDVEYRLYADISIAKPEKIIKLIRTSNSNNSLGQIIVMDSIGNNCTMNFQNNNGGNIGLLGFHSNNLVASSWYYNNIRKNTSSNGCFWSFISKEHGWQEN

T2: BoNT/B light chain (recombinant) (Clostridium botulinum, UniProt P10844 1-441)
T2 sequence: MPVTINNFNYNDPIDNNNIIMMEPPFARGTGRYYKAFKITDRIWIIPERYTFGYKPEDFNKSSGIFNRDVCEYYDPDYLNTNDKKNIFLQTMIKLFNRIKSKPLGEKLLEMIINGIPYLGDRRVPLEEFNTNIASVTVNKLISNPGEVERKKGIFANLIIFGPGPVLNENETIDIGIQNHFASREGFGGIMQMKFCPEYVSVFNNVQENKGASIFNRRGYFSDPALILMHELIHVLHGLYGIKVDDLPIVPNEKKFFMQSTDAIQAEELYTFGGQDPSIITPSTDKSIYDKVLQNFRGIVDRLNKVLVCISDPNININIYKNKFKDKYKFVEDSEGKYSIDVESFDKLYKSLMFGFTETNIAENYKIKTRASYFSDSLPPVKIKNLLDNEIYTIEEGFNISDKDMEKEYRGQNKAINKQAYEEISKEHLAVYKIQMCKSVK

B1: 38D11 scFv (scFv, V domains shown)
VH: QVQLQESGGGVVQPGRSLRLSCAASGFTFSSYGMHWVRQAPGKGLEWVAVIWYDGSNKYYADSVKGRFTISRDNSKNTLYLQMNSLRAEDTAVYYCARDKGWELMTNTDAFDIWGQGTLVTVSS
VL: not shown
B2: 37B4 scFv (scFv, V domains shown)
VH: QVQLVQSGAEVKKPGSSVKVSCKASGGTFSSYAISWVRQAPGQGLEWMGGIIPIFGTANYAQKFQGRVTITTDTSTSTAYMELRSLRSDDTAVYYCARDEDYYDSSGYYDYWGQGTLVTVSS
VL: QTVVTQEPSLTVAPGGTVTLTCGSSAGAVTTDHYPSWFQKKPGQAPTTIIYDTTNKHSMTPGPARFSGSLLGGKAALTLSGAQPEDEAEYYCFLSYRGSRPVFGGGTKVTVL
B3: 39D1.1 scFv (scFv, V domains shown)
VH: EVQLVQSGGNLVQPGGSLRLSCAATGPIGSHWMTWVRQAPGQGLEWVANINLDGTEKFYVDSVKGRFTVSRDNRKSSVFLQMNNLRVDDTAVYYCARLQWGGYDGWLSPWGQGTLVTVSS
VL: DIVMTQSPPSLSASVGDRVSLTCRASEYIGTSLNWYQQKPGKAPKLLIYAASALHSGVPSRFSGSGSGTDFTLTISGLQPEDFATYYCQQANDLPLTFGGGTKLEIK
B4: 41B7 scFv (scFv, V domains shown)
VH: EVQLVQSGGNLVQPGGSLRLSCAATGPIGSHWMTWVRQAPGQGLEWVANINLDGTEKFYVDSVKGRFTVSRDNRKSSVFLQMNNLRVDDTAVYYCARLQWGGYDGWLSPWGQGTLVTVSS
VL: DIVMTQSPPSLSASVGDRVSLTCRASEYIGTSLNWYQQKPGTAPKLLIYAASALHSGVPSRFSGSGSGTDFTLTISGLQPEDFATYYCQQANDLPLTFGGGTKLEIK
B5: 41A4 scFv (scFv, V domains shown)
VH: EVQLVQSGGNLVQPGGSLRLSCAATGPIGSHWMTWVRQAPGQGLEWVANINLDGTEKFYVDSVKGRFTVSRDNRKSSVFLQMNNLRVDDTAVYYCARLQWGGYDGWLSPWGQGTLVTVSS
VL: DIVMTQSPPSLSASVGDRVSLTCRASEYIGTSLNWYQQKPGKAPKLLIYAASALHSGVPSRFSGSGSGTDFTLTISGLQPEDFATYYCQQTNDLPLTFGGGTKLEIK
B6: 1C7 scFv (scFv)
scFv: EVQLQQSGAELVRPGASVKMSCKASGYTFTSYNMHWVKQTPRQGLEWIGAIYPGNGDTSYNQKFKGKATLTVDKSSSTAYMQLSSLTSEDSAVYFCARTAGFYFDYWGQGTTLTVSSVDLKSGGSTSGSGKPGSGEGSSGSARDIVMTQSPAIMSASPGEKVTMTCSASSSVSYMYWYQQKPGSSPRLLIYYTSNLAPGVPARFSGSGSGNSYSLTISSMEGEDAATYYCQQFTSSPYTFGGGTKLEIK
notes: mouse
B7: 18F2 scFv (scFv)
scFv: EVQLQQSGPELMKPGASVKISCKASGYAFSRSWMNWVKQRPGKGLEWIGRIYPGDGDTNYNGKFKDKASLTADTSSSTAYMQLSSLTSEDSAVYFCTKSEGYYHNLGAYWGQGTTVTVSSVDLKSGGSTSGSGKPGSGEGSSGSAREIVLTQSPAIMSASPGQKVTITCSASSSVSYMHWYQQKSGTSPKRWIYDTSKLASGVPARFSGSGSGTSYSLIISSMEAEDAATYYCQQWRSNPPTFGGGTRLEIK
notes: mouse
B8: 31G2 scFv (scFv)
scFv: QVQLQQSGAELVKPGASVKLSCTASGFNIKDTYMHWVKQRPEQGLEWIGRIDPEDGETKYAPKFQGKATITADTSSNTAYLQLSSLTSEDTAVYYCARWLLYYYAMDYWGQGTSVTVSAVDLKSGGSTSGSGKPGSGEGSSGSARQIVLTQSPALMAASPGEKVTITCSVSSSISSSNLHWYQQKSETSPKPWIYGTSNLASGVPARFSGSGSGTSYSLTISRVEAEDAATYYCHQRSSYPLTFGAGTKLEIK
notes: mouse
B9: 31H3 scFv (scFv)
scFv: EVQLQQSGAELVRPGASVKMSCKASGYPFTIYWITWVKQRPGQGLEWIGEIYPGSGFTKYNEKFRSKATLTVDTSSSTAYMQLSSLTSEDSAVYYCALYGSNFDYWGQGTTLTVSSVDLKSGGSTSGSGKPGSGEGSSGSARDIVMTQSPAIMSASPGEKVTMPCSASSSVSYMHWYQQKPGTSPKRWIYDTSKLASGVPARFSGSGSGTSYSLTISRVEAEDAATYYCQQWSSHPPTFGAGTRLEIK
notes: mouse
B10: 31E2 scFv (scFv)
scFv: EVKLVESGAELVRPGASVKLSCTASGFNIKDDYVHWVKQRPEQGLEWIGRIDPEDGETKYAPKFQGKATITADTSSNTAYLQLSSLTSEDTAVYYCALWSNWYFDVWGAGTTVTVSSVDLKSGGSTSGSGKPGSGEGSSGSAREIVLTQSPAIMSASPGEKVTMTCRASSSVSYMHWYQQKPGSSPKPWIYATSNLASGVPARFSGSGSGTSYSLTISRVEAEDAATYYCQQWTSNPPTFGGGTKLEIK
notes: mouse
B11: 31E2.20 scFv (scFv)
scFv: EVKLVESGAELVRPGASVKLSCTASGFNIKDDYVHWVKQRPEQGLEWIGRIDPEDGETKYAPKFQGKATITADTSSNTAYLQLSSLTSEDTAVYYCALWSNWYFDVWGAGTTVTVSAVDLKSGGSTSGSGKPGSGEGSSGSAREIVLTQSPEILSASPGEKVTMTCRASSSVSYMHWYQQKPGSSPKPWIYATSNLASGVPARFSGSGSGTSYSLTISSMEAEDAATYYCQQFHNYPPTFGAGTKLELK
notes: mouse
B12: 31A5 scFv (scFv)
scFv: DVQLQESGPELVKPGASVKISCKASGYSFTDYNMNWVKQSNGKSLEWIGVINPNYGTTSYNQKFKGKATLTVDQSSSTAYMQLNSLTSEDSAVYYCARSGGTGYYFDYWGQGTTLTVSSVDLKSGGSTSGSGKPGSGEGSSGSARQIVLTQSPAILSASPGEKVTMTCRASSSVSYMHWYQQKPGSSPKAWIYATSNLASGVPARFSGSGSGTSYSLTISRVEAEDAATYYCQQWSSYPPTFGSGTKLEIK
notes: mouse
B13: 31A5.1 scFv (scFv)
scFv: DVQLQESGPELVKPGASVKISCKASGYSFTDYNMNWVKQSNGKSLEWIGVINPNYGTTSYNQKFKGKATLTVDQSSSTAYMQLNSLTSEDSAVYYCARSGGTGYYFDYWGQGTTLTVSSVDLKSGGSTSGSGKPGSGEGSSGSARQIVLTQSPAILSASPGEKVAMTCRASSSVSYMHWYQQKPGSSPKLLIYDTSNLASGVPVRFSGSGSGTSYSLTISRMEAEDAATYYCQQWSSYPPTFGGGTKLEIK
notes: mouse
B14: 31C3 scFv (scFv)
scFv: EVKLVETGPELKKPGETVKISCKASGYTFTNYGMNWVKQAPGKGLKWMGWINTNTGEPTYAEEFKGRFAFSLETSASTAFLQINNLKNEDTATYFCARGPIYYGTSYRFFDVWGTGTSVTVSSVDLKSGGSTSGSGKPGSGEGSSGSARQIVLTQSPAIMSASPGEKVTMTCRASSSVSSSYLHWYQQKPGSSPKLWIYSTSNLASGVPARFSGSGSGTSYSLTISRMEAEDAATYFCQQWSSFPPTFGGGTKLELK
notes: mouse
B15: 34E8B12 scFv (scFv)
scFv: QVQLVESGPDLVKPSQSLSLTCTVTGYSITSGYSWHWIRQFPGNKLEWMGYIHYSGSTNYNPSLKSRISITRDTSKNQFFLQLNSVTTEDTATYYCAVYYDYDGDYFDYWGQGTTLTVSSVDLKSGGSTSGSGKPGSGEGSSGSARDVVMTQSPAIMSASPGEKVTMTCSASSSVSYMYWFQQKPGSSPKPWIYRTSNLAPGVPARFSGSGSGTSYSLTISSMEAEDAATYYCQQWSSNPPWTFGGGTKLEIK
notes: mouse

What follows are binders tested against T1, BoNT/F1 (proteolytic BoNT/F) (assay: yeast scFv FACS).

How did the Kd turn out when B1 was run?
Its Kd is 29.1 nM.

B2 was tested. Which Kd did it give?
Its Kd is 10.1 nM.

For B3, which Kd is on record?
Its Kd is 0.747 nM.

How did the Kd turn out when B4 was run?
Its Kd is 0.892 nM.

For B5, which Kd is on record?
Its Kd is 0.533 nM.

These binders were tested against BoNT/A light chain (recombinant) (Clostridium botulinum, UniProt P0DPI0 1-448) (assay: yeast scFv FACS).

B6 was tested. Which Kd did it give?
Its Kd is 35.3 nM.

What follows are binders tested against BoNT/A1 holotoxin (Hall hyper) (Clostridium botulinum, UniProt P0DPI0 2-1296) (assay: yeast scFv FACS).

Does B6 bind?
Result: no binding

These binders were tested against BoNT/A2 holotoxin (FRI-H1A2) (Clostridium botulinum, UniProt Q45894 2-1296) (assay: yeast scFv FACS).
BoNT/A2 holotoxin (FRI-H1A2), sequence (Q45894 2-1296): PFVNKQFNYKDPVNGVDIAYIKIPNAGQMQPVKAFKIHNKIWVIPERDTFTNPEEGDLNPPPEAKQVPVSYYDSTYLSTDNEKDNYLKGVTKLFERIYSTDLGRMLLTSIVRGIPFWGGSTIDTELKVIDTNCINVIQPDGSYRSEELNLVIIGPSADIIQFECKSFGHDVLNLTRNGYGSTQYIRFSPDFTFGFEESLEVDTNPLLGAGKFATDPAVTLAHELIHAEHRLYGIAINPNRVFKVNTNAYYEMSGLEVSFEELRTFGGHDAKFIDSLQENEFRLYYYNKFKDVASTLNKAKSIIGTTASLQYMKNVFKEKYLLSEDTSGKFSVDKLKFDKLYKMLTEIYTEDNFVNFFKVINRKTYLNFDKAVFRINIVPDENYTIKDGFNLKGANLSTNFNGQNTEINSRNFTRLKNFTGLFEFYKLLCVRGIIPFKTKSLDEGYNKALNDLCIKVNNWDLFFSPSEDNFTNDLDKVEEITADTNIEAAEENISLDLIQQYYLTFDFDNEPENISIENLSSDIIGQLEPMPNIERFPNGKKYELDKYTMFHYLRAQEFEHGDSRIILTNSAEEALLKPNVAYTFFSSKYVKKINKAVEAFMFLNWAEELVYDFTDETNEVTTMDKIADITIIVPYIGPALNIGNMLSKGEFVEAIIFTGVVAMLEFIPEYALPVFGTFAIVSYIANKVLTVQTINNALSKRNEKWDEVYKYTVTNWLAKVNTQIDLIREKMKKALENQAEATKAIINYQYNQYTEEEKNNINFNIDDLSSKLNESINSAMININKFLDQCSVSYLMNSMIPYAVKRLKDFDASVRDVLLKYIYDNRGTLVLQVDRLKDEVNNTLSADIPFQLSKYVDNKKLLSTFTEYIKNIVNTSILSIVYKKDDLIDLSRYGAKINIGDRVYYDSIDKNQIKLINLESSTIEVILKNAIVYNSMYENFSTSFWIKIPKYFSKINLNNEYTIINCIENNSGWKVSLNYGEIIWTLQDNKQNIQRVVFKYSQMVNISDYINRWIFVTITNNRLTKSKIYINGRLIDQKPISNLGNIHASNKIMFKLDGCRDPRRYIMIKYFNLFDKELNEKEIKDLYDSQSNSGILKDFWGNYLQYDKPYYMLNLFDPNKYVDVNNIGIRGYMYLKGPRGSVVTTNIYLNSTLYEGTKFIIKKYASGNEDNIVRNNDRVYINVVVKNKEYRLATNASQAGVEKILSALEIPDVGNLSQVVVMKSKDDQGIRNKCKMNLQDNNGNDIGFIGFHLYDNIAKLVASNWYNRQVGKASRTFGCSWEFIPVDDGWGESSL

Does B6 bind?
Result: no binding

These binders were tested against T2, BoNT/B light chain (recombinant) (assay: yeast scFv FACS).

With B7 as the binder, how does the Kd read?
Its Kd is 1.05 nM.

Which Kd does the source give for B8 here?
The Kd was 3.34 nM.

B9 was tested. Which Kd did it give?
Its Kd is 1.28 nM.

With B10 as the binder, how does the Kd read?
The Kd was 17.1 nM.

How did the Kd turn out when B11 was run?
Its Kd is 1.96 nM.

Which Kd does the source give for B12 here?
The Kd was 9.31 nM.

For B13, which Kd is on record?
Its Kd is 1.75 nM.

With B14 as the binder, how does the Kd read?
The Kd was 5.27 nM.

For B15, which Kd is on record?
Its Kd is 2.44 nM.
